# Test system: Escherichia coli TOP10
# Test: shrunken log2 fold change of peptide-encoding DNA abundance (4.5 h post-induction vs induction); higher = less antimicrobial activity (less host growth inhibition)
# Details: time post-induction: 4.5 h; library: site-saturation at positions 5, 18, 19, 20
# 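Further: peptides expressed intracellularly from a pBAD plasmid library in pooled LB shake-flask culture, induced with 0.3% L-arabinose, DNA abundance read by NGS, three biological replicates, DESeq2 with apeglm shrinkage.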
row,Sequence,shrunken log2 fold change
1,RRIRHRPPRLPRPRPRPKCWPRP,0.123
2,RRIRFRPPRLPRPRPRPEMSPRP,0.000731
3,RRIRTRPPRLPRPRPRPFKIPRP,-0.0514
4,RRIRYRPPRLPRPRPRPVTMPRP,-0.688
5,RRIRNRPPRLPRPRPRPEMWPRP,-0.0348
6,RRIRQRPPRLPRPRPRPWGFPRP,0.0223
7,RRIRCRPPRLPRPRPRPGHMPRP,-0.0628
8,RRIRGRPPRLPRPRPRPSGFPRP,0.547
9,RRIRHRPPRLPRPRPRPCCDPRP,-0.228
10,RRIRDRPPRLPRPRPRPGAHPRP,0.651
11,RRIRERPPRLPRPRPRPVQYPRP,-0.418
12,RRIRYRPPRLPRPRPRPSPKPRP,-0.105
13,RRIRQRPPRLPRPRPRPWRPPRP,0.143
14,RRIRVRPPRLPRPRPRPDICPRP,0.221
15,RRIRNRPPRLPRPRPRPLQAPRP,-0.0119
16,RRIRMRPPRLPRPRPRPLPMPRP,0.429
17,RRIRMRPPRLPRPRPRPRDKPRP,0.0704
18,RRIRQRPPRLPRPRPRPIWPPRP,-0.0155
19,RRIRARPPRLPRPRPRPTIAPRP,0.687
20,RRIRARPPRLPRPRPRPAHCPRP,0.433
21,RRIRLRPPRLPRPRPRPQWSPRP,-0.0199
22,RRIRLRPPRLPRPRPRPHYPPRP,-0.736
23,RRIRPRPPRLPRPRPRPITNPRP,-0.471
24,RRIRDRPPRLPRPRPRPYLPPRP,0.00286
25,RRIRLRPPRLPRPRPRPYHGPRP,-0.278

row,Sequence,shrunken log2 fold change
1,RRIRYRPPRLPRPRPRPYWPPRP,-0.0534
2,RRIRCRPPRLPRPRPRPDISPRP,0.0772
3,RRIRRRPPRLPRPRPRPYSTPRP,-0.295
4,RRIRERPPRLPRPRPRPWVFPRP,-0.0105
5,RRIRTRPPRLPRPRPRPDERPRP,-0.146
6,RRIRRRPPRLPRPRPRPNVKPRP,0.0575
7,RRIRMRPPRLPRPRPRPYGTPRP,-0.411
8,RRIRDRPPRLPRPRPRPGPTPRP,0.355
9,RRIRVRPPRLPRPRPRPAYFPRP,-0.325
10,RRIRSRPPRLPRPRPRPIIWPRP,-0.174
11,RRIRKRPPRLPRPRPRPPGAPRP,1.3
12,RRIRKRPPRLPRPRPRPVNYPRP,-0.0716
13,RRIRCRPPRLPRPRPRPSDGPRP,-0.0084
14,RRIRPRPPRLPRPRPRPKEQPRP,0.183
15,RRIRSRPPRLPRPRPRPNLGPRP,-0.0959
16,RRIRTRPPRLPRPRPRPKTAPRP,-0.0452
17,RRIRVRPPRLPRPRPRPVHKPRP,0.129
18,RRIRLRPPRLPRPRPRPKPCPRP,-0.158
19,RRIRERPPRLPRPRPRPWLDPRP,0.121
20,RRIRQRPPRLPRPRPRPNYPPRP,-0.239
21,RRIRVRPPRLPRPRPRPGVMPRP,-0.261
22,RRIRHRPPRLPRPRPRPRFWPRP,0.112
23,RRIRSRPPRLPRPRPRPFNSPRP,-0.116
24,RRIRARPPRLPRPRPRPTRFPRP,0.737
25,RRIRERPPRLPRPRPRPFNHPRP,-1.01

row,Sequence,shrunken log2 fold change
1,RRIRDRPPRLPRPRPRPCWGPRP,0.0493
2,RRIRHRPPRLPRPRPRPTNHPRP,-0.457
3,RRIRDRPPRLPRPRPRPLVAPRP,0.912
4,RRIRDRPPRLPRPRPRPPHRPRP,0.195
5,RRIRVRPPRLPRPRPRPQFAPRP,0.133
6,RRIRNRPPRLPRPRPRPNCFPRP,0.0424
7,RRIRSRPPRLPRPRPRPVGPPRP,0.373
8,RRIRHRPPRLPRPRPRPLCLPRP,-0.368
9,RRIRPRPPRLPRPRPRPICGPRP,0.103
10,RRIRTRPPRLPRPRPRPQYNPRP,-0.856
11,RRIRERPPRLPRPRPRPLRDPRP,-0.0299
12,RRIRWRPPRLPRPRPRPNWDPRP,-0.0442
13,RRIRIRPPRLPRPRPRPFDKPRP,-0.177
14,RRIRERPPRLPRPRPRPACYPRP,-0.308
15,RRIRWRPPRLPRPRPRPMTSPRP,0.0704
16,RRIRMRPPRLPRPRPRPKHLPRP,0.142
17,RRIRTRPPRLPRPRPRPICAPRP,0.0827
18,RRIRMRPPRLPRPRPRPMTKPRP,0.0956
19,RRIRRRPPRLPRPRPRPCKWPRP,-0.0414
20,RRIRPRPPRLPRPRPRPMNVPRP,-0.0376
21,RRIRRRPPRLPRPRPRPNMCPRP,-0.368
22,RRIRLRPPRLPRPRPRPKLPPRP,0.492
23,RRIRERPPRLPRPRPRPLKWPRP,0.159
24,RRIRMRPPRLPRPRPRPIRFPRP,-0.133
25,RRIRCRPPRLPRPRPRPDAAPRP,1.03

row,Sequence,shrunken log2 fold change
1,RRIRWRPPRLPRPRPRPGQMPRP,0.0528
2,RRIRCRPPRLPRPRPRPVAQPRP,0.159
3,RRIRRRPPRLPRPRPRPLGNPRP,-0.0268
4,RRIRYRPPRLPRPRPRPPICPRP,-0.801
5,RRIRTRPPRLPRPRPRPHRVPRP,0.0498
6,RRIRRRPPRLPRPRPRPQWSPRP,-0.00927
7,RRIRTRPPRLPRPRPRPPNYPRP,-0.101
8,RRIRVRPPRLPRPRPRPSANPRP,0.122
9,RRIRDRPPRLPRPRPRPVRVPRP,0.908
10,RRIRNRPPRLPRPRPRPYERPRP,0.0318
11,RRIRVRPPRLPRPRPRPAQKPRP,0.135
12,RRIRTRPPRLPRPRPRPAKRPRP,0.0872
13,RRIRWRPPRLPRPRPRPWNCPRP,-0.116
14,RRIRCRPPRLPRPRPRPRQDPRP,-0.0742
15,RRIRDRPPRLPRPRPRPHKVPRP,-0.0568
16,RRIRQRPPRLPRPRPRPADNPRP,-0.536
17,RRIRRRPPRLPRPRPRPSHRPRP,-0.00626
18,RRIRLRPPRLPRPRPRPAINPRP,-0.157
19,RRIRKRPPRLPRPRPRPNMQPRP,0.26
20,RRIRQRPPRLPRPRPRPHFRPRP,0.092
21,RRIRDRPPRLPRPRPRPFESPRP,-0.00133
22,RRIRNRPPRLPRPRPRPCIKPRP,-0.207
23,RRIRCRPPRLPRPRPRPIWDPRP,0.166
24,RRIRDRPPRLPRPRPRPLAQPRP,0.83
25,RRIRDRPPRLPRPRPRPQWRPRP,0.21

row,Sequence,shrunken log2 fold change
1,RRIRGRPPRLPRPRPRPVPYPRP,0.11
2,RRIRSRPPRLPRPRPRPALVPRP,0.398
3,RRIRHRPPRLPRPRPRPLIWPRP,-0.538
4,RRIRERPPRLPRPRPRPDRSPRP,-0.0225
5,RRIRPRPPRLPRPRPRPYLCPRP,-0.504
6,RRIRNRPPRLPRPRPRPIMWPRP,0.137
7,RRIRLRPPRLPRPRPRPHMVPRP,-0.336
8,RRIRDRPPRLPRPRPRPNEEPRP,-0.019
9,RRIRYRPPRLPRPRPRPGWWPRP,0.316
10,RRIRARPPRLPRPRPRPCMHPRP,-0.226
11,RRIRLRPPRLPRPRPRPEKAPRP,0.166
12,RRIRARPPRLPRPRPRPNTCPRP,0.136
13,RRIRQRPPRLPRPRPRPNICPRP,0.0129
14,RRIRFRPPRLPRPRPRPMQPPRP,0.287
15,RRIRARPPRLPRPRPRPSIMPRP,-0.178
16,RRIRFRPPRLPRPRPRPCIEPRP,-0.422
17,RRIRVRPPRLPRPRPRPSAHPRP,-0.0182
18,RRIRFRPPRLPRPRPRPYGSPRP,-0.182
19,RRIRPRPPRLPRPRPRPMHHPRP,-0.194
20,RRIRTRPPRLPRPRPRPLNDPRP,-0.192
21,RRIRARPPRLPRPRPRPAGMPRP,0.432
22,RRIRLRPPRLPRPRPRPSKTPRP,-0.258
23,RRIRTRPPRLPRPRPRPMIRPRP,-0.0798
24,RRIRIRPPRLPRPRPRPDEAPRP,0.0301
25,RRIRHRPPRLPRPRPRPSHPPRP,0.0558

row,Sequence,shrunken log2 fold change
1,RRIRNRPPRLPRPRPRPDDMPRP,-0.107
2,RRIRDRPPRLPRPRPRPNIQPRP,-0.0288
3,RRIRVRPPRLPRPRPRPSCTPRP,-0.175
4,RRIRERPPRLPRPRPRPLDKPRP,-0.114
5,RRIRYRPPRLPRPRPRPKDQPRP,-0.48
6,RRIRKRPPRLPRPRPRPYHGPRP,-0.000893
7,RRIRNRPPRLPRPRPRPYARPRP,-0.0034
8,RRIRKRPPRLPRPRPRPQSNPRP,0.0971
9,RRIRNRPPRLPRPRPRPVTTPRP,0.171
10,RRIRTRPPRLPRPRPRPMMNPRP,0.0667
11,RRIRDRPPRLPRPRPRPEQSPRP,0.964
12,RRIRTRPPRLPRPRPRPNTKPRP,-0.337
13,RRIRIRPPRLPRPRPRPCKTPRP,-0.168
14,RRIRERPPRLPRPRPRPQNFPRP,-0.486
15,RRIRHRPPRLPRPRPRPEYLPRP,0.0871
16,RRIRQRPPRLPRPRPRPVCHPRP,-0.13
17,RRIRMRPPRLPRPRPRPWWAPRP,-0.0423
18,RRIRYRPPRLPRPRPRPGKEPRP,0.0011
19,RRIRARPPRLPRPRPRPEHIPRP,-0.185
20,RRIRQRPPRLPRPRPRPHRTPRP,-0.0723
21,RRIRPRPPRLPRPRPRPYWCPRP,-0.272
22,RRIRYRPPRLPRPRPRPFYAPRP,-0.642
23,RRIRDRPPRLPRPRPRPLGRPRP,0.0897
24,RRIRHRPPRLPRPRPRPEGLPRP,0.00161
25,RRIRKRPPRLPRPRPRPEIGPRP,0.191
